One may read the Kd as the free concentration of one partner at which half of the binding sites on the other are occupied at equilibrium, for simple one-to-one binding.

Holding throughout (conditions): protein: recombinant; 3' overhang 20 nt on strand 2
In one data set the target is T1, HpRap1A (Hansenula polymorpha DL-1, UniProt W1Q7Z6 1-613).
T1 sequence: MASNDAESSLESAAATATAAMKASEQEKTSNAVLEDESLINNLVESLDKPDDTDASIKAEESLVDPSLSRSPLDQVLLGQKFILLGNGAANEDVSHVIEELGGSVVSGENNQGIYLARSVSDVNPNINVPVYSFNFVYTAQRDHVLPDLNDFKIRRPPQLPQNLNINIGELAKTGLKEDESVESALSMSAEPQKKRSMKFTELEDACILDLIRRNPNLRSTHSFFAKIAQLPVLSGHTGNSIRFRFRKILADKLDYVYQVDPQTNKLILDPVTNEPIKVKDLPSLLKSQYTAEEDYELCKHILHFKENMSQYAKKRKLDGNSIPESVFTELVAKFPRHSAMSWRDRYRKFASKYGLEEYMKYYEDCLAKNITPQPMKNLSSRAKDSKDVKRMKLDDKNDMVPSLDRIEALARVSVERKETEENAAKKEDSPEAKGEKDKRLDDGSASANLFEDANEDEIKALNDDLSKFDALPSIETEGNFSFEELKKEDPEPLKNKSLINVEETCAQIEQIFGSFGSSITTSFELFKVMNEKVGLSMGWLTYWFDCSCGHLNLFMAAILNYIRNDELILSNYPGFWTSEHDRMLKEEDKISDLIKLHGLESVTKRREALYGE
As to the kind of experiment: SPR; SPR: 10 mM HEPES-NaOH pH 7.5, 150 mM NaCl, 0.5 mM DTT, 0.05% Tween 20, 1 mg/ml BSA, 0.02 mg/ml salmon sperm DNA; competition 2 nM protein with 20 or 200 nM competitor. EMSA: 20 mM HEPES-NaOH pH 7.5, 50 mM NaCl, 0.2 mg/ml BSA, 5% glycerol, 0.1 mg/ml salmon sperm DNA, room temperature.

Data set [1] concerns the target T2, HpRap1B (Hansenula polymorpha DL-1, UniProt W1QDN2 1-576).
T2 sequence: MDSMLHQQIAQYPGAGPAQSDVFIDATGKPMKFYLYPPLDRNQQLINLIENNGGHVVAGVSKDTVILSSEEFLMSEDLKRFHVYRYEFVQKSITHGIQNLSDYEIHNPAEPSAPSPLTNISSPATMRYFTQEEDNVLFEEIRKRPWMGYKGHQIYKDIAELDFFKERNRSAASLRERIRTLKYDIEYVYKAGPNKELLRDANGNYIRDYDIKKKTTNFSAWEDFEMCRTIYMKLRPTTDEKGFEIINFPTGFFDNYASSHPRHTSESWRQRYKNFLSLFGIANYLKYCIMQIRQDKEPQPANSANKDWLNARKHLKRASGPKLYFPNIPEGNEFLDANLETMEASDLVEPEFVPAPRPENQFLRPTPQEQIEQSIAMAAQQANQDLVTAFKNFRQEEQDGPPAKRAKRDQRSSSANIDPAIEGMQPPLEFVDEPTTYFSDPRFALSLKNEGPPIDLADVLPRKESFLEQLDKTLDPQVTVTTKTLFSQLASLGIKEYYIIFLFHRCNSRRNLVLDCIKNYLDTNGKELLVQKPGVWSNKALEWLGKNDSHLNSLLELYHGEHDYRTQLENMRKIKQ
The data set can be described thus: SPR; kinetic fit; equilibrium Kd 11±1; SPR: 10 mM HEPES-NaOH pH 7.5, 150 mM NaCl, 0.5 mM DTT, 0.05% Tween 20, 1 mg/ml BSA, 0.02 mg/ml salmon sperm DNA; competition 2 nM protein with 20 or 200 nM competitor. EMSA: 20 mM HEPES-NaOH pH 7.5, 50 mM NaCl, 0.2 mg/ml BSA, 5% glycerol, 0.1 mg/ml salmon sperm DNA, room temperature. (Surface plasmon resonance follows binding to a sensor surface in real time, without labels.)

The target of data set [2] is T2, HpRap1B. As to the kind of experiment: SPR; kinetic fit; equilibrium Kd 13±3; SPR: 10 mM HEPES-NaOH pH 7.5, 150 mM NaCl, 0.5 mM DTT, 0.05% Tween 20, 1 mg/ml BSA, 0.02 mg/ml salmon sperm DNA; competition 2 nM protein with 20 or 200 nM competitor. EMSA: 20 mM HEPES-NaOH pH 7.5, 50 mM NaCl, 0.2 mg/ml BSA, 5% glycerol, 0.1 mg/ml salmon sperm DNA, room temperature.

B1: HANPO2 (SPR) (dsDNA)
DNA 1: GGGTGGCGGGGTGGCG
DNA 2: CGCCACCCCGCCACCCCCTCTACGTCCTCCTGCTCC
Consider B1, for which the binding result in the data set with HpRap1A is “no binding”. Moreover, the Kd in the data set with HpRap1B [1] is 12 ± 1 nM.

B2: HANPO4 (SPR) (dsDNA)
DNA 1: GGGTGGCGGGGTGGCGGGGTGGCGGGGTGGCG
DNA 2: CGCCACCCCGCCACCCCGCCACCCCGCCACCCCCTCTACGTCCTCCTGCTCC
Regarding B2, in the data set with HpRap1B [2], the Kd stood at 12 ± 3 nM.

Values taken from paper PMC6510891, “Functional duplication of Rap1 in methylotrophic yeasts”.
